Several values for one entry are separate records, joined by “and”; a condition that tells them apart may be missing. Identical values can stand only once.

PD-1 (PDCD1) (Homo sapiens (Human)), sequence (Q15116 21-288): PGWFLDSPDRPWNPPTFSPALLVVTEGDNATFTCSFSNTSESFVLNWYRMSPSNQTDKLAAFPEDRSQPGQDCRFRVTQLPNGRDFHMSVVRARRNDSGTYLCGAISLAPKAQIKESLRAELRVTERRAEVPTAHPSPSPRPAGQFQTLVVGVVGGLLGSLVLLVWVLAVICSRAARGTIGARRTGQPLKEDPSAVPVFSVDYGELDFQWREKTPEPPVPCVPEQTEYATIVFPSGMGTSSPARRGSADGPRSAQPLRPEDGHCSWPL
human PD-L1, full length, expressed on transfected HEK293 cells (human), sequence (Q9NZQ7 19-290): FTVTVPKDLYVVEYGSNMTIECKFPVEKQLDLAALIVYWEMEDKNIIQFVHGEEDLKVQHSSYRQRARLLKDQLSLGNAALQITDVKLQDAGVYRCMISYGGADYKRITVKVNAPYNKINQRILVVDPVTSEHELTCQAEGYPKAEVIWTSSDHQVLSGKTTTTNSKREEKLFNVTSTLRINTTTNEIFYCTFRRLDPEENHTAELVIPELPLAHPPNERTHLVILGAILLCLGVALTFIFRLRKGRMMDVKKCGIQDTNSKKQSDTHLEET
Wild Type PD-L2 IgV-Fc, sequence (Q9BQ51 20-121): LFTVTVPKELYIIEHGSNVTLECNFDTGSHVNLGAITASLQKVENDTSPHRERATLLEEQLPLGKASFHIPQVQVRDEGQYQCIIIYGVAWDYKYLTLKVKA

In the first assay the target is CD28 on Jurkat/IL2 reporter cells (human) (UniProt P10747). The assay is described as follows: cell-based or functional assay.
Consider “CD80 V22D/E35D/M47L/L70M/L97Q IgV-Fc (inert) (Fc fusion)”, for which the Fold Increase over WT CD80-IgV-Fc (RLU, Jurkat/IL2 + K562/OKT3/PD-L1 reporter assay, 50 nM) is 7.5 fold and the Relative Luciferase Units (RLU), Jurkat/IL2 + K562/OKT3/PD-L1 reporter assay, CD80-Fc Conc 50 nM came to 1540 RLU.

“CD80 V22D/E35D/M47L/L85Q IgV-Fc (inert) (Fc fusion)”: the Fold Increase over WT CD80-IgV-Fc (RLU, Jurkat/IL2 + K562/OKT3/PD-L1 reporter assay, 50 nM) worked out at 5.5 fold and the Relative Luciferase Units (RLU), Jurkat/IL2 + K562/OKT3/PD-L1 reporter assay, CD80-Fc Conc 50 nM came out at 1140 RLU.

As to “CD80 V22L/Q27H/E35D/M47I/A71G IgV-Fc (inert) (Fc fusion)”, the Fold Increase over WT CD80-IgV-Fc (RLU, Jurkat/IL2 + K562/OKT3/PD-L1 reporter assay, 50 nM) stood at 5.5 fold and the Relative Luciferase Units (RLU), Jurkat/IL2 + K562/OKT3/PD-L1 reporter assay, CD80-Fc Conc 50 nM amounted to 1120 RLU.

Another assay concerns the target PD-1 (PDCD1) (Homo sapiens (Human)) (UniProt Q15116). Put plainly: cell-based or functional assay.
On to “PD-L2 E44D IgV-Fc (from UniProt Q9BQ51 20-121) (Fc fusion)”, for which the IFN gamma levels pg/mL (MLR) was found to be 1500 pg/mL.

The substance “PD-L2 E44D/S67L/Q72H/Q82R/V89D IgV-Fc (from UniProt Q9BQ51 20-121) (Fc fusion)” returned an IFN gamma levels pg/mL (MLR) of 1280 pg/mL.

Turning to “PD-L2 E59G/Q82R IgV-Fc (from UniProt Q9BQ51 20-121) (Fc fusion)”, the IFN gamma levels pg/mL (MLR) was 1510 pg/mL.

In the case of “PD-L2 H15Q/C23S/I86T IgV-Fc (from UniProt Q9BQ51 20-121) (Fc fusion)”, the IFN gamma levels pg/mL (MLR) came to 1850 pg/mL.

In turn, “PD-L2 H15Q/E44D/R76G/I85F IgV-Fc (from UniProt Q9BQ51 20-121) (Fc fusion)” yielded an IFN gamma levels pg/mL (MLR) of 1390 pg/mL.

In turn, “PD-L2 H15Q/K65R IgV-Fc (from UniProt Q9BQ51 20-121) (Fc fusion)” showed an IFN gamma levels pg/mL (MLR) of 1510 pg/mL.

Take “PD-L2 H15Q/L33H/S67L/R76G/Q82R/V89D IgV-Fc (from UniProt Q9BQ51 20-121) (Fc fusion)”: the IFN gamma levels pg/mL (MLR) is 1500 pg/mL.

On to “PD-L2 H15Q/L33P/T47A/S67L/P71S/V89D IgV-Fc (from UniProt Q9BQ51 20-121) (Fc fusion)”, for which the IFN gamma levels pg/mL (MLR) is 1290 pg/mL.

Take “PD-L2 H15Q/N32D/S67L/V89D IgV-Fc (from UniProt Q9BQ51 20-121) (Fc fusion)”: the IFN gamma levels pg/mL (MLR) was determined as 1290 pg/mL.

As to “PD-L2 H15Q/Q72H/V89D IgV-Fc (from UniProt Q9BQ51 20-121) (Fc fusion)”, the IFN gamma levels pg/mL (MLR) amounted to 1270 pg/mL.

Regarding “PD-L2 H15Q/R76G/I85F IgV-Fc (first entry) (from UniProt Q9BQ51 20-121) (Fc fusion)”, the IFN gamma levels pg/mL (MLR) was determined as 1730 pg/mL.

“PD-L2 H15Q/S39I/I86T IgV-Fc (from UniProt Q9BQ51 20-121) (Fc fusion)”: the IFN gamma levels pg/mL (MLR) turned out to be 1420 pg/mL.

For “PD-L2 H15Q/S67L/R76G IgV-Fc (from UniProt Q9BQ51 20-121) (Fc fusion)”, the IFN gamma levels pg/mL (MLR) is 1430 pg/mL.

The substance “PD-L2 H15Q/S67L/R76G/I85F IgV-Fc (from UniProt Q9BQ51 20-121) (Fc fusion)” yielded an IFN gamma levels pg/mL (MLR) of 1320 pg/mL.

For the substance “PD-L2 H15Q/T47A/K65R/S67L/Q82R/V89D IgV-Fc (from UniProt Q9BQ51 20-121) (Fc fusion)”, the IFN gamma levels pg/mL (MLR) is 1340 pg/mL.

“PD-L2 H15Q/T47A/Q72H/R76G IgV-Fc (from UniProt Q9BQ51 20-121) (Fc fusion)” showed an IFN gamma levels pg/mL (MLR) of 1460 pg/mL.

Consider “PD-L2 H15Q/T47A/Q82R IgV-Fc (from UniProt Q9BQ51 20-121) (Fc fusion)”, for which the IFN gamma levels pg/mL (MLR) came out at 1320 pg/mL.

Consider “PD-L2 H15Q/V89D IgV-Fc (from UniProt Q9BQ51 20-121) (Fc fusion)”, for which the IFN gamma levels pg/mL (MLR) came out at 1500 pg/mL.

For the substance “PD-L2 I12V/I13V/H15Q/T47A/Q82R/V89D IgV-Fc (from UniProt Q9BQ51 20-121) (Fc fusion)”, the IFN gamma levels pg/mL (MLR) is 1530 pg/mL.

For “PD-L2 I13V/H15Q/E44D/V89D IgV-Fc (from UniProt Q9BQ51 20-121) (Fc fusion)”, the IFN gamma levels pg/mL (MLR) was 1380 pg/mL.

Substance “PD-L2 I13V/H15Q/E44V/T47A/Q82R/V89D IgV-Fc (from UniProt Q9BQ51 20-121) (Fc fusion)” yielded an IFN gamma levels pg/mL (MLR) of 1270 pg/mL.

The substance “PD-L2 I13V/H15Q/I36V/T47A/S67L/V89D IgV-Fc (from UniProt Q9BQ51 20-121) (Fc fusion)” showed an IFN gamma levels pg/mL (MLR) of 1360 pg/mL.

With “PD-L2 I13V/H15Q/L33F/T47A/Q82R/V89D IgV-Fc (from UniProt Q9BQ51 20-121) (Fc fusion)”, the IFN gamma levels pg/mL (MLR) was 1470 pg/mL.

In the case of “PD-L2 I13V/H15Q/Q82R IgV-Fc (from UniProt Q9BQ51 20-121) (Fc fusion)”, the IFN gamma levels pg/mL (MLR) is 1430 pg/mL.

For the substance “PD-L2 I13V/H15Q/R76G/I85F IgV-Fc (from UniProt Q9BQ51 20-121) (Fc fusion)”, the IFN gamma levels pg/mL (MLR) was found to be 1530 pg/mL.

“PD-L2 I13V/H15Q/T47A/Q72H/R76G IgV-Fc (from UniProt Q9BQ51 20-121) (Fc fusion)” gave an IFN gamma levels pg/mL (MLR) of 1470 pg/mL.

For “PD-L2 I13V/H15Q/T47A/Q82R/V89D IgV-Fc (from UniProt Q9BQ51 20-121) (Fc fusion)”, the IFN gamma levels pg/mL (MLR) was 1450 pg/mL and 1740 pg/mL.

For the substance “PD-L2 I13V/Q72H/R76G/I86T IgV-Fc (from UniProt Q9BQ51 20-121) (Fc fusion)”, the IFN gamma levels pg/mL (MLR) worked out at 1950 pg/mL.

The substance “PD-L2 I13V/S67L/Q82R/V89D IgV-Fc (from UniProt Q9BQ51 20-121) (Fc fusion)” came in with an IFN gamma levels pg/mL (MLR) of 1370 pg/mL.

Take “PD-L2 N24D IgV-Fc (from UniProt Q9BQ51 20-121) (Fc fusion)”: the IFN gamma levels pg/mL (MLR) is 1980 pg/mL.

“PD-L2 S39I/V89D IgV-Fc (from UniProt Q9BQ51 20-121) (Fc fusion)” registered an IFN gamma levels pg/mL (MLR) of 1310 pg/mL.

Take “PD-L2 S67L/I85F IgV-Fc (from UniProt Q9BQ51 20-121) (Fc fusion)”: the IFN gamma levels pg/mL (MLR) was 1280 pg/mL.

Consider “Wild Type PD-L2 IgV-Fc (from UniProt Q9BQ51 20-121) (Fc fusion)”, for which the IFN gamma levels pg/mL (MLR) was determined as 1380 pg/mL.

In a further assay the target is PD-L1 on K562/OKT3/PD-L1 artificial antigen presenting cells (UniProt Q9NZQ7). The assay is described as follows: cell-based or functional assay.
PD-L1 on K562/OKT3/PD-L1 artificial antigen presenting cells, sequence (Q9NZQ7 19-290): as the sequence (Q9NZQ7 19-290) above
On to “CD80 V22D/E35D/M47L/L70M/L97Q IgV-Fc (inert) (Fc fusion)”, for which the Fold Increase over WT CD80-IgV-Fc (RLU, Jurkat/IL2 + K562/OKT3/PD-L1 reporter assay, 50 nM) amounted to 7.5 fold and the Relative Luciferase Units (RLU), Jurkat/IL2 + K562/OKT3/PD-L1 reporter assay, CD80-Fc Conc 50 nM came to 1540 RLU.

Regarding “CD80 V22D/E35D/M47L/L85Q IgV-Fc (inert) (Fc fusion)”, the Fold Increase over WT CD80-IgV-Fc (RLU, Jurkat/IL2 + K562/OKT3/PD-L1 reporter assay, 50 nM) amounted to 5.5 fold and the Relative Luciferase Units (RLU), Jurkat/IL2 + K562/OKT3/PD-L1 reporter assay, CD80-Fc Conc 50 nM was 1140 RLU.

On to “CD80 V22L/Q27H/E35D/M47I/A71G IgV-Fc (inert) (Fc fusion)”, for which the Fold Increase over WT CD80-IgV-Fc (RLU, Jurkat/IL2 + K562/OKT3/PD-L1 reporter assay, 50 nM) amounted to 5.5 fold and the Relative Luciferase Units (RLU), Jurkat/IL2 + K562/OKT3/PD-L1 reporter assay, CD80-Fc Conc 50 nM is 1120 RLU.

The next assay has as its target human PD-L1, full length, expressed on transfected HEK293 cells (human) (UniProt Q9NZQ7). Put plainly: flow cytometry, HEK293 cells transfected with human PD-L1. On the technique in general: A flow cytometer gives signals particle by particle.
In turn, “variant CD80 IgV-Fc E35D/T57A/A71D/L85Q (from UniProt P33681 35-141) (Fc fusion)” returned an MFI at 22.2 nM of 1760 MFI.

Consider “variant CD80 IgV-Fc H18Y/A71D/L72P/E88V (from UniProt P33681 35-141) (Fc fusion)”, for which the MFI at 22.2 nM was 1080 MFI.

“variant CD80 IgV-Fc L70Q/A71D (from UniProt P33681 35-141) (Fc fusion)” returned an MFI at 22.2 nM of 1690 MFI.

“variant CD80 IgV-Fc M47V/I69F/A71D/V83I (from UniProt P33681 35-141) (Fc fusion)” gave an MFI at 22.2 nM of 3400 MFI.

Turning to “variant CD80 IgV-Fc Q27H/E35G/A71D/L72P/T79I (from UniProt P33681 35-141) (Fc fusion)”, the MFI at 22.2 nM worked out at 1450 MFI.

As for “variant CD80 IgV-Fc Q27L/E35D/M47I/T57I/L70Q/E88D (from UniProt P33681 35-141) (Fc fusion)”, the MFI at 22.2 nM came out at 1050 MFI.

(Values after US20210130436A1.)
